Consider 94 variants from the supplement of paper PMC10567573.

Sequences and labels used below:
B1: SNX8 (parent)
chain: LHQETQLIHVYLPLTSHILRAFVN
B2: WSB1 (parent)
chain: FSHDGLHVASLADDKMVRFWRIDE
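Further: lentivirally expressed fusions sorted by FACS into six bins by GFP to DsRed ratio, PSI derived from sequencing read proportions per bin multiplied by bin number.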

The variants in one series derive from B1. Description: protein stability index of a GFP-peptide fusion (GPS, HEK-293T) (PSI 1-6); higher = more stable. Conditions: c terminus: a fixed tail appended.
For LHQETQLIHVYLPLTSHILRAFVT [N24T], the protein stability index was found to be 2.16. The same measure, in the same setting: for LHQETQLIHVYLPLTSHILRAFVL [N24L] the value was 2.37. Consider LHQETQLIHVYLPLTSHILRAFVQ [N24Q], for which the protein stability index came out at 2.93. As for LHQETQLIHVYLPLTSHILRAFVF [N24F], the protein stability index was 3.69. Consider LHQETQLIHVYLPLTSHILRAFVA [N24A], for which the protein stability index was determined as 2.76. With LHQETQLIHVYLPLTSHILRAFVH [N24H], the protein stability index is 5.51.

Take LHQETQLIHVYLPLTSHILRAFVY [N24Y]: the protein stability index was 2.88. The same measure, in the same setting: in the case of LHQETQLIHVYLPLTSHILRAFVS [N24S] it was 2.59; in that of LHQETQLIHVYLPLTSHILRAFVV [N24V], 3.76; in that of LHQETQLIHVYLPLTSHILRAFVK [N24K], 2.06. LHQETQLIHVYLPLTSHILRAFVD [N24D]: the protein stability index worked out at 2.94.

In the case of LHQETQLIHVYLPLTSHILRAMVN [F22M], the protein stability index is 1.52. Regarding LHQETQLIHVYLPLTSHILRAKVN [F22K], the protein stability index amounted to 2.21. As for LHQETQLIHVYLPLTSHILRASVN [F22S], the protein stability index turned out to be 2.14. Regarding LHQETQLIHVYLPLTSHILRANVN [F22N], the protein stability index turned out to be 1.92. In the case of LHQETQLIHVYLPLTSHILRACVN [F22C], the protein stability index was found to be 3.79. For the variant LHQETQLIHVYLPLTSHILRAIVN [F22I], the protein stability index is 1.79. As for LHQETQLIHVYLPLTSHILRAGVN [F22G], the protein stability index was found to be 2.88. For LHQETQLIHVYLPLTSHILRAVVN [F22V], the protein stability index was 2.75. With LHQETQLIHVYLPLTSHILRAQVN [F22Q], the protein stability index was 2.57.

LHQETQLIHVYLPLTSHILRAHVN [F22H]: the protein stability index turned out to be 1.96.

For LHQETQLIHVYLPLTSHILRAPVN [F22P], the protein stability index came out at 3.46. The same measure, in the same setting: for LHQETQLIHVYLPLTSHILRADVN [F22D] the value was 2.12; for LHQETQLIHVYLPLTSHILRALVN [F22L], 2.39. Turning to LHQETQLIHVYLPLTSHILRARVN [F22R], the protein stability index was 2.4.

In the case of LHQETQLIHVYLPLTSHILRAYVN [F22Y], the protein stability index is 4.5. In the case of LHQETQLIHVYLPLTSHILRAFYN [V23Y], the protein stability index amounted to 3.02. Still for that read-out and setting: for LHQETQLIHVYLPLTSHILRAFEN [V23E] the value was 2.79; for LHQETQLIHVYLPLTSHILRAFFN [V23F], 2.14; for LHQETQLIHVYLPLTSHILRAFLN [V23L], 2.22. On to LHQETQLIHVYLPLTSHILRAFHN [V23H], for which the protein stability index came out at 2.58. The same measure, in the same setting: in the case of LHQETQLIHVYLPLTSHILRAFDN [V23D] it was 2.39. On to LHQETQLIHVYLPLTSHILRAFMN [V23M], for which the protein stability index was 2.4. For LHQETQLIHVYLPLTSHILRAFSN [V23S], the protein stability index is 2. Take LHQETQLIHVYLPLTSHILRAFWN [V23W]: the protein stability index came to 3.24. The same measure, in the same setting: in the case of LHQETQLIHVYLPLTSHILRAFQN [V23Q] it was 2.27; in that of LHQETQLIHVYLPLTSHILRAFIN [V23I], 1.96; in that of LHQETQLIHVYLPLTSHILRAFTN [V23T], 3.16.

In the case of LHQETQLIHVYLPLTSHILRAFPN [V23P], the protein stability index was determined as 2.03.

With LHQETQLIHVYLPLTSHILRAFAN [V23A], the protein stability index amounted to 3.31. For the variant LHQETQLIHVYLPLTSHILMAFVN [R20M], the protein stability index came out at 3.04.

As for LHQETQLIHVYLPLTSHILYAFVN [R20Y], the protein stability index worked out at 3.11. As to LHQETQLIHVYLPLTSHILCAFVN [R20C], the protein stability index turned out to be 2.94. LHQETQLIHVYLPLTSHILIAFVN [R20I]: the protein stability index was found to be 2.9. Regarding LHQETQLIHVYLPLTSHILQAFVN [R20Q], the protein stability index was determined as 1.89.

For the variant LHQETQLIHVYLPLTSHILGAFVN [R20G], the protein stability index was 3.27. Consider LHQETQLIHVYLPLTSHILPAFVN [R20P], for which the protein stability index worked out at 3.

For LHQETQLIHVYLPLTSHILNAFVN [R20N], the protein stability index came to 3.03.

In the case of LHQETQLIHVYLPLTSHILHAFVN [R20H], the protein stability index was 2.95. As to LHQETQLIHVYLPLTSHILDAFVN [R20D], the protein stability index turned out to be 1.93. Turning to LHQETQLIHVYLPLTSHILTAFVN [R20T], the protein stability index was determined as 1.72. For LHQETQLIHVYLPLTSHILVAFVN [R20V], the protein stability index was found to be 1.72. As for LHQETQLIHVYLPLTSHILAAFVN [R20A], the protein stability index turned out to be 3.61.

With LHQETQLIHVYLPLTSHILLAFVN [R20L], the protein stability index is 3.82. With LHQETQLIHVYLPLTSHILRFFVN [A21F], the protein stability index turned out to be 1.38. LHQETQLIHVYLPLTSHILRTFVN [A21T]: the protein stability index came to 1.84. For LHQETQLIHVYLPLTSHILRRFVN [A21R], the protein stability index amounted to 2.63.

Take LHQETQLIHVYLPLTSHILRMFVN [A21M]: the protein stability index was 3.49. Consider LHQETQLIHVYLPLTSHILRNFVN [A21N], for which the protein stability index is 3.01. In the case of LHQETQLIHVYLPLTSHILREFVN [A21E], the protein stability index turned out to be 2.48.

As to LHQETQLIHVYLPLTSHILRKFVN [A21K], the protein stability index was found to be 2.03.

As for LHQETQLIHVYLPLTSHILRCFVN [A21C], the protein stability index came to 2.73. On the same count and under the same terms, for LHQETQLIHVYLPLTSHILRQFVN [A21Q] the value was 2.01.

Consider LHQETQLIHVYLPLTSHILRPFVN [A21P], for which the protein stability index turned out to be 2.84. Take LHQETQLIHVYLPLTSHILRWFVN [A21W]: the protein stability index was determined as 2.18. LHQETQLIHVYLPLTSHILRYFVN [A21Y]: the protein stability index is 2.35. For the variant LHQETQLIHVYLPLTSHILRIFVN [A21I], the protein stability index came out at 3.77. Consider LHQETQLIHVYLPLTSHILRDFVN [A21D], for which the protein stability index turned out to be 2.8.

A further series covers variants of B2. Described as above. To be noted: c terminus: a fixed tail appended.
On to FSHDGLHRASLADDKMVRFWRIDE [V8R], for which the protein stability index was found to be 1.84. On to FSHDGLHQASLADDKMVRFWRIDE [V8Q], for which the protein stability index amounted to 3.68. Still for that read-out and setting: for FSHDGLHIASLADDKMVRFWRIDE [V8I] the value was 1.92; for FSHDGLHAASLADDKMVRFWRIDE [V8A], 1.94. On to FSHDGLHEASLADDKMVRFWRIDE [V8E], for which the protein stability index stood at 2.59. On to FSHDGLHKASLADDKMVRFWRIDE [V8K], for which the protein stability index came out at 1.1. As for FSHDGLHNASLADDKMVRFWRIDE [V8N], the protein stability index stood at 1.68. Turning to FSHDGLHMASLADDKMVRFWRIDE [V8M], the protein stability index stood at 1.03.

Regarding FSHDGLHCASLADDKMVRFWRIDE [V8C], the protein stability index worked out at 1.38. As to FSHDGLHLASLADDKMVRFWRIDE [V8L], the protein stability index came out at 1.53. On to FSHDGLHSASLADDKMVRFWRIDE [V8S], for which the protein stability index turned out to be 2.41. Regarding FSHDGLHTASLADDKMVRFWRIDE [V8T], the protein stability index was 1.86. For the variant FSHDGLHDASLADDKMVRFWRIDE [V8D], the protein stability index was found to be 1.88. Take FSHDGLHHASLADDKMVRFWRIDE [V8H]: the protein stability index is 1.83. Consider FSHDGLHWASLADDKMVRFWRIDE [V8W], for which the protein stability index is 2.92. Take FSHDGLHGASLADDKMVRFWRIDE [V8G]: the protein stability index worked out at 1.75. Take QSHDGLHVASLADDKMVRFWRIDE [F1Q]: the protein stability index came to 3.9. Same read-out and setting: in the case of ISHDGLHVASLADDKMVRFWRIDE [F1I] it was 2.89. Consider NSHDGLHVASLADDKMVRFWRIDE [F1N], for which the protein stability index was 3.25. For WSHDGLHVASLADDKMVRFWRIDE [F1W], the protein stability index was 2.3. On the same count and under the same terms, in the case of KSHDGLHVASLADDKMVRFWRIDE [F1K] it was 3.4; in that of ASHDGLHVASLADDKMVRFWRIDE [F1A], 2.85. Still for that read-out and setting: in the case of LSHDGLHVASLADDKMVRFWRIDE [F1L] it was 3.14.

Turning to TSHDGLHVASLADDKMVRFWRIDE [F1T], the protein stability index stood at 3.73. As for ESHDGLHVASLADDKMVRFWRIDE [F1E], the protein stability index stood at 4.03. As for YSHDGLHVASLADDKMVRFWRIDE [F1Y], the protein stability index came to 2.49.
